# Measurements: patent US6528283 (INSTITUTE NATIONAL DE LA SANT ET DE LA RECHERCHE M DICALE, dated 2003)
# Read-outs that look alike come from different tables or passages of the source.
# B1: hD53 interactor (GAL4 activation domain fused to full-length hD53, pACT2hD53) (other)
# chain: ANFNQSGNIADSSLSFTFTNSSNGPNLITTQTNSQALSQPIASSNVHDNFMNNEITASKIDDGNNSKPLSPGWTDQTAYNAFGITTGMFNTTTMDDVYNYLFDDEDTPPNPKKEMEAQAQGLLETEPLQGTDEDAVASADFSSMLSEEEKEELKAELVQLEDEITTLRQVLSAKERHLVEIKQKLGMNLMNELKQNFSKSWHDMQTTTAYKKTHETLSHAGQKATAAFSNVGTAISKKFGDMSYSIRHSISMPAMRNSPTFKSFEERVETTVTSLKTKVGGTNPNGGSFEEVLSSTAHASAQSLAGGSRRTKEEELQC
# B2: mD52(95-185) bait (GAL4 DNA-binding domain fused to the C-terminal half of mD52, pAS2-1mD52(95-185)) (other)
# chain: MKLLSSIEQACDICRLKKLKCSKEKPKCAKCLKNNWECRYSPKTKRSAYKKTSETLSQAGQKASAAFSSVGSVITKKLEDVKNSPTFKSFEEKVENLKSKVGGAKPAGGDFGEVLNSTANATSTMTTEPPPEQMTESP
# notes: range 1-47
# B3: hD52 bait (GAL4 DNA-binding domain fused to full-length hD52, pAS2-1hD52) (other)
# chain: MKLLSSIEQACDICRLKKLKCSKEKPKCAKCLKNNWECRYSPKTKRSMDRGEQGLLRTDPVPEEGEDVAATISATETLSEEEQEELRRELAKVEEEIQTLSQVLAAKEKHLAEIKRKLGINSLQELKQNIAKGWQDVTATSAYKKTSETLSQAGQKASAAFSSVGSVITKKLEDVKNSPTFKSFEEKVENLKSKVGGTKPAGGDFGEVLNSAANASATTTEPLPEKTQESL
# notes: range 1-47; Fusion expressed in yeast; also called pAS2-1D52; full-length hD52 bait
# Assays:
# [1] = target: hD53 bait (GAL4 DNA-binding domain fused to full-length hD53, pAS2-1hD53) (human, UniProt P04386 1-47 (Saccharomyces cerevisiae entry), limits assumed); test: cell-based or functional assay
# [2] = target: B3; test: cell-based or functional assay
# [3] = target: hD54-ins2 bait (GAL4 DNA-binding domain fused to hD54-ins2, pAS2-1hD54-ins2) (human, UniProt P04386 1-47 (Saccharomyces cerevisiae entry), limits assumed); test: cell-based or functional assay
# [4] = target: T1, mD52 bait (GAL4 DNA-binding domain fused to full-length mD52, pAS2-1mD52) (mouse, UniProt P04386 1-47 (Saccharomyces cerevisiae entry), limits assumed); test: cell-based or functional assay
# [5] = target: T2, GAL4 DNA-binding domain alone (empty pAS2-1 vector, negative control bait) (UniProt P04386 1-47, limits assumed); test: cell-based or functional assay
# T2 chain (looked up): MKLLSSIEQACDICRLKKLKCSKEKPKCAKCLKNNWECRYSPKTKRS
# [6] = target: hD54+ins2 bait (GAL4 DNA-binding domain fused to hD54+ins2, pAS2-1hD54+ins2) (human, UniProt P04386 1-47 (Saccharomyces cerevisiae entry), limits assumed); test: cell-based or functional assay
# [7] = target: B2; test: cell-based or functional assay
# [8] = target: mD52(1-95) bait (GAL4 DNA-binding domain fused to the N-terminal half of mD52, pAS2-1mD52(1-95)) (mouse, UniProt P04386 1-47 (Saccharomyces cerevisiae entry)); test: cell-based or functional assay
# [9] = target: T1, mD52 bait (GAL4 DNA-binding domain …); test: cell-based or functional assay; remark: listed apart in the source
# [10] = target: B1; test: yeast two-hybrid, quantitative β-galactosidase assay in Y190
# Experimental: Interactions between baits and interactors were assessed by qualitatively and/or quantitatively determining HIS3 and lacZ reporter gene activity in Y190 co-transfectants. […] For quantitative assessment of interactions, β-galactosidase activity was measured using the substrate o-nitrophenyl β-D-galactopyranoside (ONPG) in liquid cultures (SD/-His-Trp-Leu +35 mM 3-AT) of Y190 co-transfectants.
# [11] = target: eukaryotic initiation factor 4AII library interactor (pAD-GAL4 construct) (human, UniProt P04386 761-881; Q14240 1-407, limits assumed); test: yeast two-hybrid, retransfection of a library interactor in Hf7c
# Experimental: Transformants were plated onto solid SD/-His-Trp-Leu (incorporating 35 mM 3-AT in the case of Y190 transformants) and incubated for up to 14 days at 30° C. […] Colonies which remained His+, and in the case of Y190 co-transformants, were also lacZ+, were re-streaked onto fresh plates to check that all colonies were of uniform phenotype. After 6 days incubation at 30° C., yeast colonies were directly harvested, and plasmid DNA was isolated and used to transfect XL1 Blue. Mini-preparations of plasmid DNA were performed for at least 5 XL1 Blue colonies per transfection, with the results of restriction digests differentiating potential interactors from bait plasmids. […] Phenotypes of resulting co-transfectants were assayed quantitatively and/or qualitatively as described above.
binder,measurement,setting,value
B1,"β-galactosidase activity, yeast two-hybrid (Y190)",[1],18.1 β-galactosidase activity units (positive control = 1000)
same,"β-galactosidase activity, yeast two-hybrid (Y190)",[2],15.2 β-galactosidase activity units (positive control = 1000)
same,"β-galactosidase activity, yeast two-hybrid (Y190)",[3],17.6 β-galactosidase activity units (positive control = 1000)
same,"β-galactosidase activity, yeast two-hybrid (Y190)",[4],6.07 β-galactosidase activity units (positive control = 1000)
same,"β-galactosidase activity, yeast two-hybrid (Y190)",[5],0 β-galactosidase activity units (positive control = 1000)
same,"β-galactosidase activity, yeast two-hybrid (Y190)",[6],11.7 β-galactosidase activity units (positive control = 1000)
same,"β-galactosidase activity, yeast two-hybrid (Y190)",[7],0.5 β-galactosidase activity units (positive control = 1000)
same,"β-galactosidase activity, yeast two-hybrid (Y190)",[8],6.95 β-galactosidase activity units (positive control = 1000)
same,"β-galactosidase activity, yeast two-hybrid (Y190)",[9],5.44 β-galactosidase activity units (positive control = 1000)
B2,binding result,[10],no binding
same,binding result,[11],no binding
B3,binding result,[11],no binding
